# Test results reported in patent publication US8658672.
# T1: F-HIF-1α peptide (788-822 amino acids)
# T1 chain: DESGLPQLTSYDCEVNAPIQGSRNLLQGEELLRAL
# B1: recombinant human FIH-1, histidine-tagged fusion protein (protein)
# chain: MAATAAEAVASGSGEPREEAGALGPAWDESQLRSYSFPTRPIPRLSQSDPRAEELIENEEPVVLTDTNLVYPALKWDLEYLQENIGNGDFSVYSASTHKFLYYDEKKMANFQNFKPRSNREEMKFHEFVEKLQDIQQRGGEERLYLQQTLNDTVGRKIVMDFLGFNWNWINKQQGKRGWGQLTSNLLLIGMEGNVTPAHYDEQQNFFAQIKGYKRCILFPPDQFECLYPYPVHHPCDRQSQVDFDNPDYERFPNFQNVVGYETVVGPGDVLYIPMYWWHHIESLLNGGITITVNFWYKGAPTPKRIEYPLKAHQKVAIMRNIEKMLGEALGNPQEVGPLLNTMIKGRYN
# Columns and labels:
# [1] = biological target: [35S]-labeled human HIF-1α protein, Q16665
# Sequence of [35S]-labeled human HIF-1α protein, Q16665 (Q16665 401-826): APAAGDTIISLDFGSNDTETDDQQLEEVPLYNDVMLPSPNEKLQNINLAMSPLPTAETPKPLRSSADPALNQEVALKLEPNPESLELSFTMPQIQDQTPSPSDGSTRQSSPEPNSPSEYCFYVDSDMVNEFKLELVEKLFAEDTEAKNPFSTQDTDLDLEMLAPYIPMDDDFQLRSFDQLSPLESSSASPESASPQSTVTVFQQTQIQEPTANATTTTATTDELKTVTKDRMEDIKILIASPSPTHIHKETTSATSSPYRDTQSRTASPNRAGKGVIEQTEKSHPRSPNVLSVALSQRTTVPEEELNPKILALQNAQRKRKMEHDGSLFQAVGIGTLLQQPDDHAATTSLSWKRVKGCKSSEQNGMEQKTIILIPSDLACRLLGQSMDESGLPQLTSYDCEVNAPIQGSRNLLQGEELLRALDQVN
# [2] = biological target: T1, F-HIF-1α peptide (788-822 amino acids)
protein,measurement,setting,value
B1,interaction of [35S]-HIF-1α with bead-bound GST-CBP after reaction with FIH-1,[1],the addition of FIH-1 reduced significantly the interaction between HIF-1α and CBP
same,MALDI-TOF mass of the peptide after incubation with FIH-1 (asparagine hydroxylation),[2],after treatment with FIH-1 the peptide gave a new MALDI-TOF peak corresponding to an increase of molecular weight of 16
